Patent US20040266664

What was measured:
[1] = test system: T1, dileucine α′,β′-epoxide
T1 sequence: LL

[2] = test system: T2, tetraleucine α′,β′-epoxide
T2 sequence: LLLL

[3] = test system: T3, tetrapeptide epoxide with P4 methylphenyl, other side chains leucine
T3 sequence: XLLL

[4] = test system: T4, tetrapeptide epoxide with P4 phenyl, other side chains leucine
T4 sequence: FLLL

[5] = test system: T5, Benzoylbenzoic-PFL-Ex
T5 sequence: PFL

[6] = test system: T6, tetrapeptide epoxide with P4 p-benzoylphenyl, other side chains leucine
T6 sequence: XLLL

[7] = test system: T7, Ac-PPFL-Ex
T7 sequence: XPFX

[8] = test system: T8, Ac-LLFL-epoxide
T8 sequence: XLFX

[9] = test system: T9, Ac-IVL-Ex
T9 sequence: IVL

[10] = test system: T10, Ac-NorLPFL-Ex
T10 sequence: XPFX

[11] = test system: T11, N-acetyl-piperidinecarbonyl-PFL-Ex
T11 sequence: PFL

[12] = test system: T12, Ac-GGPFL-Ex
T12 sequence: XGPFX

[13] = test system: T13, Ac-ALLL-epoxide
T13 sequence: XLLX

[14] = test system: T14, trileucine α′,β′-epoxide
T14 sequence: LLL

[15] = test system: T15, compound 18
T15 sequence: XLFX

[16] = test system: T16, Ac-PFL-Ex
T16 sequence: PFL

[17] = test system: T17, Ac-LLAL-epoxide
T17 sequence: XLAX

[18] = test system: T18, compound 16
T18 sequence: XLFX

[19] = test system: T19, Ac-AVL-Ex
T19 sequence: AVL

[20] = test system: T20, Ac-LFLL-epoxide
T20 sequence: XFLX

[21] = test system: T21, N-dimethylaminobenzoyl-PFL-EX
T21 sequence: PFL

[22] = test system: T22, tetrapeptide epoxide with P4 1-naphthyl, other side chains leucine
T22 sequence: XLLL

[23] = test system: T23, monoleucine α′,β′-epoxide
T23 sequence: L

[24] = test system: T24, Pyrazinecarbonyl-PFL-Ex
T24 sequence: PFL

[25] = test system: T25, Eponemycin
T25 sequence: SL

[26] = test system: T26, tetrapeptide epoxide with P3 1-naphthyl, other side chains leucine
T26 sequence: LXLL

[27] = test system: NLVS
[28] = test system: T27, tetrapeptide epoxide with P2 1-naphthyl, other side chains leucine
T27 sequence: LLXL

[29] = test system: T28, Isooctanioc-PFL-Ex
T28 sequence: PFL

[30] = test system: T29, Ac-GPFL-Ex
T29 sequence: XPFX

[31] = test system: T30, Ac-LALL-epoxide
T30 sequence: XALX

purified bovine erythrocyte 20S proteasome
kobs/[I], PGPH activity [1]: † | kobs/[I], chymotrypsin-like activity [1]: 3.1 (100-160 µM) | kobs/[I], trypsin-like activity [1]: † | kobs/[I], PGPH activity [2]: 9.2 (100-160 µM) | kobs/[I], chymotrypsin-like activity [2]: 14,000 (50-150 nm) | kobs/[I], trypsin-like activity [2]: † | kobs/[I], PGPH activity (Z-LLE-AMC) [3]: 50 M⁻¹ s⁻¹ | kobs/[I], chymotryptic-like activity (Suc-LLVY-AMC) [3]: 63000 M⁻¹ s⁻¹ | kobs/[I], tryptic-like activity (Boc-LRR-AMC) [3]: 5.4 M⁻¹ s⁻¹ | kobs/[I], PGPH activity (Z-LLE-AMC) [4]: 78 M⁻¹ s⁻¹ | kobs/[I], chymotryptic-like activity (Suc-LLVY-AMC) [4]: 37000 M⁻¹ s⁻¹ | kobs/[I], tryptic-like activity (Boc-LRR-AMC) [4]: 5.5 M⁻¹ s⁻¹ | kobs/[I], PGPH activity [5]: 140 M⁻¹ s⁻¹ | kobs/[I], chymotrypsin-like activity [5]: 8.7 M⁻¹ s⁻¹ | kobs/[I], trypsin-like activity [5]: NI | kobs/[I], PGPH activity (Z-LLE-AMC) [6]: not measurable | kobs/[I], chymotryptic-like activity (Suc-LLVY-AMC) [6]: 23000 M⁻¹ s⁻¹ | kobs/[I], tryptic-like activity (Boc-LRR-AMC) [6]: not measurable | kobs/[I], PGPH activity [7]: 10.6 M⁻¹ s⁻¹ | kobs/[I], chymotrypsin-like activity [7]: 6.4 M⁻¹ s⁻¹ | kobs/[I], trypsin-like activity [7]: NI | kobs/[I], PGPH activity (Z-LLE-AMC) [8]: not measurable | kobs/[I], chymotrypsin-like activity (Suc-LLVY-AMC) [8]: 54000 M⁻¹ s⁻¹ | kobs/[I], tryptic-like activity (Boc-LRR-AMC) [8]: not measurable | kobs/[I], PGPH activity [9]: 14.6 M⁻¹ s⁻¹ | kobs/[I], chymotrypsin-like activity [9]: 5 M⁻¹ s⁻¹ | kobs/[I], trypsin-like activity [9]: 6.7 M⁻¹ s⁻¹ | kobs/[I], PGPH activity [10]: 115 M⁻¹ s⁻¹ | kobs/[I], chymotrypsin-like activity [10]: 1.9 M⁻¹ s⁻¹ | kobs/[I], trypsin-like activity [10]: NI | kobs/[I], PGPH activity [11]: 45.3 M⁻¹ s⁻¹ | kobs/[I], chymotrypsin-like activity [11]: 31.2 M⁻¹ s⁻¹ | kobs/[I], trypsin-like activity [11]: NI | kobs/[I], PGPH activity [12]: 170 M⁻¹ s⁻¹ | kobs/[I], chymotrypsin-like activity [12]: 170 M⁻¹ s⁻¹ | kobs/[I], trypsin-like activity [12]: 1.3 M⁻¹ s⁻¹ | kobs/[I], PGPH activity (Z-LLE-AMC) [13]: 220 M⁻¹ s⁻¹ | kobs/[I], chymotrypsin-like activity (Suc-LLVY-AMC) [13]: 5300 M⁻¹ s⁻¹ | kobs/[I], tryptic-like activity (Boc-LRR-AMC) [13]: 3.8 M⁻¹ s⁻¹ | kobs/[I], PGPH activity [14]: 120 (8-12 µM) | kobs/[I], chymotrypsin-like activity [14]: 780 (1-2.5 µM) | kobs/[I], trypsin-like activity [14]: 5.1 M⁻¹ s⁻¹ | kassoc = kobs/[I], PGPH activity [15]: 11 (10-150 µM) | kassoc = kobs/[I], chymotrypsin-like activity [15]: 5200 (0.11 µM) | kassoc = kobs/[I], trypsin-like activity [15]: 580 (0.5-5 µM) | kobs/[I], PGPH activity [16]: 32 M⁻¹ s⁻¹ | kobs/[I], chymotrypsin-like activity [16]: 42 M⁻¹ s⁻¹ | kobs/[I], trypsin-like activity [16]: NI | kobs/[I], PGPH activity (Z-LLE-AMC) [17]: 20 M⁻¹ s⁻¹ | kobs/[I], chymotrypsin-like activity (Suc-LLVY-AMC) [17]: 16000 M⁻¹ s⁻¹ | kobs/[I], tryptic-like activity (Boc-LRR-AMC) [17]: 4.1 M⁻¹ s⁻¹ | kassoc = kobs/[I], PGPH activity [18]: 21 (80-150 µM) | kassoc = kobs/[I], trypsin-like activity [18]: 7.1 (80-130 µM) | kobs/[I], chymotryptic-like activity (Suc-LLVY-AMC) [18]: 183000 M⁻¹ s⁻¹ | kobs/[I], PGPH activity [19]: 12.7 M⁻¹ s⁻¹ | kobs/[I], chymotrypsin-like activity [19]: 10.8 M⁻¹ s⁻¹ | kobs/[I], trypsin-like activity [19]: 1.8 M⁻¹ s⁻¹ | kobs/[I], PGPH activity (Z-LLE-AMC) [20]: not measurable | kobs/[I], chymotrypsin-like activity (Suc-LLVY-AMC) [20]: 8500 M⁻¹ s⁻¹ | kobs/[I], tryptic-like activity (Boc-LRR-AMC) [20]: not measurable | kobs/[I], PGPH activity [21]: 150 M⁻¹ s⁻¹ | kobs/[I], chymotrypsin-like activity [21]: 220 M⁻¹ s⁻¹ | kobs/[I], trypsin-like activity [21]: NI | kobs/[I], PGPH activity (Z-LLE-AMC) [22]: not measurable | kobs/[I], chymotryptic-like activity (Suc-LLVY-AMC) [22]: 29000 M⁻¹ s⁻¹ | kobs/[I], tryptic-like activity (Boc-LRR-AMC) [22]: not measurable | kobs/[I], PGPH activity [23]: † | kobs/[I], chymotrypsin-like activity [23]: † | kobs/[I], trypsin-like activity [23]: † | kobs/[I], PGPH activity [24]: 23 M⁻¹ s⁻¹ | kobs/[I], chymotrypsin-like activity [24]: 520 M⁻¹ s⁻¹ | kobs/[I], trypsin-like activity [24]: 3.7 M⁻¹ s⁻¹ | kobs/[I], PGPH activity [25]: 175 M⁻¹ s⁻¹ | kobs/[I], chymotrypsin-like activity [25]: 58 M⁻¹ s⁻¹ | kobs/[I], trypsin-like activity [25]: 17 M⁻¹ s⁻¹ | kobs/[I], PGPH activity (Z-LLE-AMC) [26]: not measurable | kobs/[I], chymotryptic-like activity (Suc-LLVY-AMC) [26]: 31000 M⁻¹ s⁻¹ | kobs/[I], tryptic-like activity (Boc-LRR-AMC) [26]: not measurable | kassoc = kobs/[I], PGPH activity [27]: 6.4 M⁻¹ s⁻¹ | kassoc = kobs/[I], chymotrypsin-like activity [27]: 6790 M⁻¹ s⁻¹ | kassoc = kobs/[I], trypsin-like activity [27]: 5.3 M⁻¹ s⁻¹ | kobs/[I], PGPH activity (Z-LLE-AMC) [28]: not measurable | kobs/[I], chymotryptic-like activity (Suc-LLVY-AMC) [28]: 29000 M⁻¹ s⁻¹ | kobs/[I], tryptic-like activity (Boc-LRR-AMC) [28]: not measurable | kobs/[I], PGPH activity [29]: 194 M⁻¹ s⁻¹ | kobs/[I], chymotrypsin-like activity [29]: 190 M⁻¹ s⁻¹ | kobs/[I], trypsin-like activity [29]: NI | kobs/[I], PGPH activity [30]: 190 M⁻¹ s⁻¹ | kobs/[I], chymotrypsin-like activity [30]: 5 M⁻¹ s⁻¹ | kobs/[I], trypsin-like activity [30]: NI | kobs/[I], PGPH activity (Z-LLE-AMC) [31]: 130 M⁻¹ s⁻¹ | kobs/[I], chymotrypsin-like activity (Suc-LLVY-AMC) [31]: 1300 M⁻¹ s⁻¹ | kobs/[I], tryptic-like activity (Boc-LRR-AMC) [31]: 2 M⁻¹ s⁻¹
